Where two headings read alike, the source gives them in different places.
T1: human IL-23 (human, UniProt P29460 23-328; Q9NPF7 20-189)
T1 construct: Recombinant (Ebioscience); HIS-tagged in flow cytometry, biotinylated in some assays; also called hIL-23; rhIL-23
T1 sequence 1: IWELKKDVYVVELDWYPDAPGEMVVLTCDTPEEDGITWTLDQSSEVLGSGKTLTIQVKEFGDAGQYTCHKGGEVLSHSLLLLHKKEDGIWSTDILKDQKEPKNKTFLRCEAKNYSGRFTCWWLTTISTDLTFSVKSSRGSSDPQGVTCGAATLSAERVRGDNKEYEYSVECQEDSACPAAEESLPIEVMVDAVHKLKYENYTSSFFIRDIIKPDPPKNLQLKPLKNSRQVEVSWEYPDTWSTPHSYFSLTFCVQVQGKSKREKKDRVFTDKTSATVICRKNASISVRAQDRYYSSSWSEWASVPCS
T1 sequence 2: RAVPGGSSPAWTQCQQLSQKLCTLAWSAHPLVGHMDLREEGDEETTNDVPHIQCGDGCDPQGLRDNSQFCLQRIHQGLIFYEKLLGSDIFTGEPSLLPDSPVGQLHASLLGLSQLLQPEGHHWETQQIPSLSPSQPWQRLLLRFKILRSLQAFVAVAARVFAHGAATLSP

T2: human IL-12 (human, UniProt P29460 23-328; P29459 23-219)
T2 construct: Recombinant (Peprotech); FLAG-tagged IL-12 in the flow cytometry assays, biotinylated in the IL-12Rβ2 assay; also called hIL-12
T2 sequence 1: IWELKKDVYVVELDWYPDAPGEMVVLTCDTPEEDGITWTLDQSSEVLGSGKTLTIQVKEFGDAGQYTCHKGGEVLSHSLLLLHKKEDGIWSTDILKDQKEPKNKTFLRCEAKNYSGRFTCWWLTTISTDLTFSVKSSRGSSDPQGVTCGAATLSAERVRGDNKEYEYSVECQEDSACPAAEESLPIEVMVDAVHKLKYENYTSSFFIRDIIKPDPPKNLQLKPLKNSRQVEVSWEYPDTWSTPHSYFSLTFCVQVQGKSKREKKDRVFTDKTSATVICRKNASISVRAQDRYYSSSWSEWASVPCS
T2 sequence 2: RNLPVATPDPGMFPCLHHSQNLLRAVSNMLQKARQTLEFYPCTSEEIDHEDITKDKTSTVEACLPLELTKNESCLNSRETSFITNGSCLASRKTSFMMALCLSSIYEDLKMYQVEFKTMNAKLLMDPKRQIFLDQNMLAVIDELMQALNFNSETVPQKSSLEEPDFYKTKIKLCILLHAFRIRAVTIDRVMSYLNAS

B1: Antibody 60 (antibody, human IgG1, kappa, V domains shown)
VH: EVQLVQSGAEVKKPGATVKISCKASGYTFSDYYLHWVRQRPEKGLEWMGWIDPENGDTEYAPKFQGKVTITADTSTDTGYLELSSLRSEDTAVYYCAANKELRYFDVWGQGTLVTVSS
VL: DIQMTQSPSSVSASVGDRVTITCRASQSISINLHWYQQKPGKAPKLLIKFASQSISGVPSRFSGSGSGTDFSLTINSLQPEDFATYYCQQSNSFPLTFGGGTKVEIKR
B2: Antibody 145 (antibody, human IgG1, kappa, V domains shown)
VH: EVQLVQSGAEVKKPGATVKISCKASGYTFSDYYLHWVRQAPEKGLEWMGWIDPENGDTEYAPKFQGRVTITADTSTDTGYLELSSLRSEDTAVYYCAANKELRYFDVWGQGTLVTVSS
VL: DIQMTQSPSSVSASVGDRVTITCRASQSISINLHWYQQKPGKSPKLLIYFASQSISGVPSRFSGSGSGTDFSLTINSLQPEDFARYYCQQSNSFPLTFGGGTKVEIKR
B3: Antibody 142 (antibody, human IgG1, kappa, V domains shown)
VH: EVQLVQSGAEVKKPGATVKISCKASGYTFSDYYLHWVRQAPEKGLEWMGWIDPENGDTEYAPKFQGRVTITADTSTDTGYLELSSLRSEDTAVYYCAANKELRYFDVWGQGTLVTVSS
VL: DIQMTQSPSSVSASVGDRVTITCRASQSISINLHWYQQKSGKAPKLLIYFASQSISGVPSRFSGSGSGTDFSLTINSLQPEDFARYYCQQSNSFPLTFGGGTKVEIKR
B4: Antibody 144 (antibody, human IgG1, kappa, V domains shown)
VH: EVQLVQSGAEVKKPGATVKISCKASGYTFSDYYLHWVRQAPEKGLEWMGWIDPENGDTEYAPKFQGRVTITADTSTDTGYLELSSLRSEDTAVYYCAANKELRYFDVWGQGTLVTVSS
VL: DIQMTQSPSSVSASVGDRVTITCRASQSISINLHWYQQKPGEAPKLLIYFASQSISGVPSRFSGSGSGTDFSLTINSLQPEDFARYYCQQSNSFPLTFGGGTKVEIKR
B5: Antibody 137 (antibody, human IgG1, kappa, V domains shown)
VH: EVQLVQSGAEVKKPGATVKISCKASGYTFSDYYLHWVRQAPEKGLEWMGWIDPENGDTEYAPKFQGRVTITADTSTDTGYLELSSLRSEDTAVYYCAANKELRYFDVWGQGTLVTVSS
VL: DIQMTQSPSSVSASVGDRVTITCRASQSISINLHWYQQKPGKAPKLLIYFASQSISGVPSRFSGSGSGTDFSLTINSLQPEDFATYFCQQSNSFPLTFGGGTKVEIKR
B6: Antibody 140 (antibody, human IgG1, kappa)
heavy: not shown
light: DIQMTQSPSSVSATVGDRVTITCRASQSISINLHWYQQKPGKAPKLLIYFASQSISGVPSRFSGSGSGTDFSLTINSLQPEDFARYYCQQSNSFPLTFGGGTKVEIKRTVAAPSVFIFPPSDEQLKSGTASVVCLLNNFYPREAKVQWKVDNALQSGNSQESVTEQDSKDSTYSLSSTLTLSKADYEKHKVYACEVTHQGLSSPVTKSFNRGEC
B7: Antibody 133 (antibody, human IgG1, kappa, V domains shown)
VH: EVQLVQSGAEVKKPGATVKISCKASGYTFSDYYLHWVRQAPEKGLEWMGWIDPENGDTEYAPKFQGRVTITADTSTDTGYLELSSLRSEDTAVYYCAANKELRYFDVWGQGTLVTVSS
VL: DIQMTQSPSSVSASVGDRVTITCRASQSISINLHWYQQKPGEAPKLLIYFASQSISGVPSRFSGSGSGTDFSLTINSLQPEDFATYYCQQSNSFPLTFGGGTKVEIKR
B8: Antibody 134 (antibody, human IgG1, kappa, V domains shown)
VH: EVQLVQSGAEVKKPGATVKISCKASGYTFSDYYLHWVRQAPEKGLEWMGWIDPENGDTEYAPKFQGRVTITADTSTDTGYLELSSLRSEDTAVYYCAANKELRYFDVWGQGTLVTVSS
VL: DIQMTQSPSSVSASVGDRVTITCRASQSISINLHWYQQKPGKSPKLLIYFASQSISGVPSRFSGSGSGTDFSLTINSLQPEDFATYYCQQSNSFPLTFGGGTKVEIKR
B9: Antibody 147 (antibody, human IgG1, kappa, V domains shown)
VH: EVQLVQSGAEVKKPGATVKISCKASGYTFSDYYLHWVRQAPEKGLEWMGWIDPENGDTEYAPKFQGRVTITADTSTDTGYLELSSLRSEDTAVYYCAANKELRYFDVWGQGTLVTVSS
VL: DIQMTQSPSSVSASVGDRVTITCRASQSISINLHWYQQKPGKAPKLLIYFASQSISGVPSRFSGSGSGTDFSLTINSLQTEDFARYYCQQSNSFPLTFGGGTKVEIKR
B10: Antibody 143 (antibody, human IgG1, kappa, V domains shown)
VH: EVQLVQSGAEVKKPGATVKISCKASGYTFSDYYLHWVRQAPEKGLEWMGWIDPENGDTEYAPKFQGRVTITADTSTDTGYLELSSLRSEDTAVYYCAANKELRYFDVWGQGTLVTVSS
VL: DIQMTQSPSSVSASVGDRVTITCRASQSISINLHWYQQKPHKAPKLLIYFASQSISGVPSRFSGSGSGTDFSLTINSLQPEDFARYYCQQSNSFPLTFGGGTKVEIKR
B11: Antibody 141 (antibody, human IgG1, kappa)
heavy chain: not shown
light chain: DIQMTQSPSSVSASPGDRVTITCRASQSISINLHWYQQKPGKAPKLLIYFASQSISGVPSRFSGSGSGTDFSLTINSLQPEDFARYYCQQSNSFPLTFGGGTKVEIKRTVAAPSVFIFPPSDEQLKSGTASVVCLLNNFYPREAKVQWKVDNALQSGNSQESVTEQDSKDSTYSLSSTLTLSKADYEKHKVYACEVTHQGLSSPVTKSFNRGEC
B12: Antibody 146 (antibody, human IgG1, kappa, V domains shown)
VH: EVQLVQSGAEVKKPGATVKISCKASGYTFSDYYLHWVRQAPEKGLEWMGWIDPENGDTEYAPKFQGRVTITADTSTDTGYLELSSLRSEDTAVYYCAANKELRYFDVWGQGTLVTVSS
VL: DIQMTQSPSSVSASVGDRVTITCRASQSISINLHWYQQKPGKAPKLLIYFASQSISGIPSRFSGSGSGTDFSLTINSLQPEDFARYYCQQSNSFPLTFGGGTKVEIKR
B13: Antibody 135 (antibody, human IgG1, kappa, V domains shown)
VH: EVQLVQSGAEVKKPGATVKISCKASGYTFSDYYLHWVRQAPEKGLEWMGWIDPENGDTEYAPKFQGRVTITADTSTDTGYLELSSLRSEDTAVYYCAANKELRYFDVWGQGTLVTVSS
VL: DIQMTQSPSSVSASVGDRVTITCRASQSISINLHWYQQKPGKAPKLLIYFASQSISGIPSRFSGSGSGTDFSLTINSLQPEDFATYYCQQSNSFPLTFGGGTKVEIKR
B14: Antibody 61 (antibody, human IgG1, kappa, V domains shown)
VH: EVQLVQSGAEVKKPGATVKISCKASGYTFSDYYLHWVRQAPGKGLEWMGWIDPENGDTEYAPKFQGRVTITADTSTDTGYLELSSLRSEDTAVYYCAANKELRYFDVWGQGTLVTVSS
VL: DIQMTQSPSSVSASVGDRVTITCRASQSISINLHWYQQKPGKAPKLLIYFASQSISGVPSRFSGYGSGTDFSLTINSLQPEDFATYYCQQSNSFPLTFGGGTKVEIKR
B15: Antibody 131 (antibody, human IgG1, kappa, V domains shown)
VH: EVQLVQSGAEVKKPGATVKISCKASGYTFSDYYLHWVRQAPEKGLEWMGWIDPENGDTEYAPKFQGRVTITADTSTDTGYLELSSLRSEDTAVYYCAANKELRYFDVWGQGTLVTVSS
VL: DIQMTQSPSSVSASVGDRVTITCRASQSISINLHWYQQKSGKAPKLLIYFASQSISGVPSRFSGSGSGTDFSLTINSLQPEDFATYYCQQSNSFPLTFGGGTKVEIKR
B16: Antibody 148 (antibody, human IgG1, kappa, V domains shown)
VH: EVQLVQSGAEVKKPGATVKISCKASGYTFSDYYLHWVRQAPEKGLEWMGWIDPENGDTEYAPKFQGRVTITADTSTDTGYLELSSLRSEDTAVYYCAANKELRYFDVWGQGTLVTVSS
VL: DIQMTQSPSSVSASVGDRVTITCRASQSISINLHWYQQKPGKAPKLLIYFASQSISGVPSRFSGSGSGTDFSLTINSLQPEDFARYFCQQSNSFPLTFGGGTKVEIKR
B17: Antibody 132 (antibody, human IgG1, kappa, V domains shown)
VH: EVQLVQSGAEVKKPGATVKISCKASGYTFSDYYLHWVRQAPEKGLEWMGWIDPENGDTEYAPKFQGRVTITADTSTDTGYLELSSLRSEDTAVYYCAANKELRYFDVWGQGTLVTVSS
VL: DIQMTQSPSSVSASVGDRVTITCRASQSISINLHWYQQKPHKAPKLLIYFASQSISGVPSRFSGSGSGTDFSLTINSLQPEDFATYYCQQSNSFPLTFGGGTKVEIKR

How the values were obtained:
[1] = biological target: T1, human IL-23; assay: ELISA, coated IL-23
Method in brief: (§1)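 Maxisorp plates were coated overnight at 4° C with cytokine at 1 μg/mL in carbonate buffer pH 9.6, then blocked for 1 hour at 25° C with 1% BSA in PBS. Antibody titrations were allowed to bind for 1 hour at 25° C and detected with goat anti-human IgG or anti-murine immunoglobulin HRP (1:2000, 1 hour), followed by TMB development stopped with 1M HCl. Binding is reported as absorbance. Readings were taken at 450 nm against a 620 nm reference.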

[2] = biological target: T2, human IL-12; assay: ELISA, coated IL-12
Method in brief: as §1

[3] = biological target: T2, human IL-12; assay: ELISA, coated IL-12; remark: listed apart in the source
Method in brief: as §1

[4] = biological target: T1, human IL-23; assay: ELISA, coated IL-23; remark: listed apart in the source
Method in brief: as §1

Row | Binder | binding result [1] | binding result [2] | binding result [3] | binding result [4]
1 | B1 | binds | binds | – | –
2 | B2 | – | – | binds | binds
3 | B3 | – | – | binds | binds
4 | B4 | – | – | binds | binds
5 | B5 | – | – | binds | binds
6 | B6 | – | – | binds | binds
7 | B7 | – | – | binds | binds
8 | B8 | – | – | binds | binds
9 | B9 | – | – | binds | binds
10 | B10 | – | – | binds | binds
11 | B11 | – | – | binds | binds
12 | B12 | – | – | binds | binds
13 | B13 | – | – | binds | binds
14 | B14 | binds | binds | – | –
15 | B15 | – | – | binds | binds
16 | B16 | – | – | binds | binds
17 | B17 | – | – | binds | binds

Source: patent US20110262445A1 (CEPHALON AUSTRALIA, published 2011)
